# ± gives the uncertainty stated by the source.
# Test: amyloid nucleation score (Sup35N fusion, yeast selection) (log enrichment); library NNK1; higher = more nucleation; inactive = no reads after selection
# Method in brief: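 Plasmid inserts were Illumina-sequenced at input and output from psi-negative yeast expressing Sup35N fused to peptides of 20 random codons. The yeast were induced with 100 μM copper sulfate for 24 hours and grown 7 days at 30°C on medium lacking adenine and uracil, and sequences with under 100 input reads were excluded. Nucleation score is the DiMSum log enrichment of output over input reads, centred on the mode score of non-aggregating sequences.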
row,Substance,amyloid nucleation score
1,QFSLPLCGYKRRHNGSFAEM,-1.14 ± 2.1
2,QFYHLYCHKIYCFRGEFRRR,1.83 ± 0.46
3,QGAGAGKITVGTVGVGGTEL,inactive
4,QGIAACSAGSLDYVYGRWKG,3.91 ± 0.09
5,QGISPLRWAVLYRFMYGCVR,-0.209 ± 0.57
6,QGRGMDNVIYVEVRMRDCRR,2.04 ± 0.24
7,QGSCCD,-0.815 ± 0.86
8,QGSDSSNEATTAPLCRLRIW,1.11 ± 0.94
9,QIAVWPSYFSGDIGDMSRKG,0.017 ± 0.56
10,QIIPTRFGWFSNRGCVLGSY,1.08 ± 0.38
11,QIRRGCRYFW,-0.856 ± 1.1
12,QIVCGSMWMLDKI,-0.297 ± 0.49
13,QIYASKWPYEIEFKNFMRVA,0.247 ± 0.42
14,QIYVIICLMFSDIGMHIAYV,inactive
15,QKSIDLYFEKRHTISTQNR,-0.455 ± 0.56
16,QLEFVWLILTYHEGHYRIGK,inactive
17,QLPCDRISSDALYRMWGLV,-1.41 ± 0.91
18,QLQTSQRV,inactive
19,QLRYKIVMHRQSEHKPSLLN,-0.855 ± 1.5
20,QLSRSVWRRMRRQQKHPLTG,1.62 ± 0.81
21,QLVGFVVPRRSSPGVHTGEC,1.21 ± 0.53
22,QMDMCDYERFYLA,inactive
23,QMDVRDFYSRVSGGGGYQMH,-0.074 ± 0.61
24,QMLIAGGAKTGTPLFPGASS,0.358 ± 0.5
25,QNDLERWAEGQASKMLG,0.433 ± 0.4

row,Substance,amyloid nucleation score
1,QNFNFSWVYTFYTRICTLYF,5.872 ± 0.047
2,QNNCSPARPTAHNYVGGHAT,0.656 ± 1
3,QNYSLNWSITGLVRLLSRIC,-0.73 ± 0.55
4,QQRLWRNAWTDMARKVSTSR,0.452 ± 1.2
5,QRARIINRKHV,0.214 ± 0.74
6,QRFHFLNRL,-0.411 ± 1.1
7,QRMACWYLDKLESLSKLACM,0.612 ± 0.82
8,QRVIAGPPNRAGKAYQALSR,0.107 ± 0.53
9,QSISYR,-0.956 ± 0.7
10,QSLSLVVPDIVMIKTPN,inactive
11,QSPKQILWR,1.11 ± 0.63
12,QSSSLHKHSFTHVVSQNEGG,0.543 ± 0.26
13,QTFMHSCEFRVN,-0.347 ± 0.66
14,QTWLTLDQFVLTFGHKDNLG,0.853 ± 0.51
15,QVFGFYTMEKVYHVGGIASV,-0.296 ± 0.3
16,QVGPVREHEHKVLAGLSMDW,0.498 ± 0.38
17,QVLVYNDFRYFEFHRDVFLR,8.45 ± 0.073
18,QVNFNRRFNTQAIFNLSGVP,0.947 ± 0.71
19,QVRLVNWVCRM,3.71 ± 0.059
20,QVTNRMRLRLMYR,0.699 ± 0.37
21,QWKGSFSSV,-0.873 ± 1.1
22,QWSDS,-0.267 ± 0.41
23,QYAIFRLSKTWIIHSMDKNA,0.269 ± 0.21
24,QYLFSGLEEMPIVTVLS,-0.393 ± 0.31
25,QYSHDRRFLPGMVHVRLFLE,0.662 ± 0.38

row,Substance,amyloid nucleation score
1,QYYFARIREFLSIQFIAWYC,0.172 ± 0.32
2,RACFRVIYWFSLLDKVGETV,-0.427 ± 1.1
3,RAISVLPIMSVRAH,0.085 ± 0.25
4,RALFSIHNTAEGLSERWAAL,0.58 ± 1.2
5,RAQYYYICRWRYYTWPVPR,-0.515 ± 1
6,RARDIKWGCLFVCLTCMSTG,3.76 ± 0.067
7,RARGAIYTVT,-0.894 ± 2.4
8,RAVGSDWGKVVFLLMNSEES,0.212 ± 0.31
9,RCASHKTQYKRCGGVDEQEA,1.96 ± 0.58
10,RCCIIDLFS,4.87 ± 0.066
11,RCDRTGQRRALDRGSCFLVE,-0.46 ± 1.1
12,RCDSMSCTVYCEGNS,-1.03 ± 1.5
13,RCKELDCSPDSGITVTRSLI,1.12 ± 0.63
14,RCNDAFTFTCRPGWMWKWGK,1.75 ± 0.18
15,RCNSSSIEWTVCILFDLLFY,-0.122 ± 1
16,RCSGYRFRFTVRRTSLCFVK,-0.447 ± 1.2
17,RCVKASLYDGEYMKLMDGVM,-0.407 ± 0.45
18,RDAEWTMIIIIARNQMKAFS,-0.162 ± 0.4
19,RDAFYRGRTRFNQRRYMYRR,-0.335 ± 0.53
20,RDASRVVCMRPRWGPFQVVV,0.222 ± 0.69
21,RDCWQ,-0.571 ± 0.3
22,RDIRWITQEADGYLELRHSF,-0.085 ± 0.73
23,RDLDSSILNNFFDICTFWNK,-0.305 ± 0.5
24,RDLTKSDLMSVNAYMVIYRW,0.382 ± 0.31
25,RDMRLLAFRLPIRRFTRGST,-0.097 ± 0.44

row,Substance,amyloid nucleation score
1,RDNKVPVR,-0.537 ± 1.9
2,RDPVLDVGLRCMWHNGGPFG,-0.035 ± 1.4
3,RDWTRGHACRYCSWQWVARG,0.529 ± 0.88
4,REDAYR,-0.429 ± 0.91
5,REGLTFPRVLPIWHLFVSSD,-0.139 ± 0.32
6,RELLGGVRNRLVYR,-0.192 ± 0.23
7,RESASSNGYVYILCMQRVPR,0.102 ± 0.34
8,RFASISYVGTNSGLDVQSNW,0.171 ± 1.2
9,RFGGD,-0.388 ± 0.57
10,RFHCYWTPRTLSMASSTPWM,0.47 ± 0.45
11,RFISCMFFKYIPLQCFVLGR,0.548 ± 0.39
12,RFISVMSLSLLNNNFIEAHV,0.55 ± 0.6
13,RFLGSWCSIYIGRCVMFDRG,1.13 ± 0.28
14,RFLLLPAHPGPGVSMVYRYL,0.077 ± 0.9
15,RFNWFL,-0.285 ± 0.86
16,RFNYVYFINRNMNEPRRGSL,6.452 ± 0.061
17,RFSITSGNYFNN,-0.971 ± 0.79
18,RFSQWLPFWSVGGELQSCFC,0.239 ± 0.68
19,RFVWKDDTHQAIGTFLMSQG,1 ± 0.54
20,RGAQARSQCCMVVMSVESRS,0.628 ± 0.46
21,RGCPAFDNVTSYDESSEWSY,0.365 ± 0.62
22,RGCSFFWCPLCRGYGGCLCC,0.482 ± 0.74
23,RGGMIPGYTPAMYHWMLFKS,0.185 ± 0.47
24,RGNWIRS,-0.533 ± 0.77
25,RGSEPAIGLMMVLP,0.458 ± 0.41

row,Substance,amyloid nucleation score
1,RGSNAMDYSEVFCWMYNDLL,1.11 ± 0.58
2,RGYSGTTTHAATATKLS,1.56 ± 0.78
3,RHALGLFRSGLGMDMDDNGS,inactive
4,RHCPLAVFRKSPLLAIGKFG,-0.685 ± 0.66
5,RHGVRYSKLELINTREFYNE,-0.246 ± 0.9
6,RHSFGLFVSRLVRFREDGYY,-0.508 ± 0.52
7,RHYGGAFQRLYRMSGPMT,-1.05 ± 0.96
8,RICGGTSFDSRNGLKLGRKG,0.034 ± 0.64
9,RIFLLVTHVACAMPLFHKTR,0.83 ± 0.75
10,RIGRKDLLFWVPTCRHVLLL,0.416 ± 0.28
11,RIGVLNCWEVWADVTQREHL,-0.769 ± 1.1
12,RINMGNYSLKWNMFTKVSLK,-0.227 ± 0.35
13,RINVSGWQLQATLSFLLAFS,0.289 ± 0.5
14,RIRLVCHCPFSYRLAVPLSE,3.99 ± 0.1
15,RISTCIEILYDS,-0.587 ± 0.37
16,RIVSSFLLSVVGCGMEVVRV,0.349 ± 0.63
17,RIYRFLKLLIRGGVISVARY,-0.758 ± 1.9
18,RKFGPMG,0.848 ± 1
19,RKGSVSQRDYSIDYWGFCRC,1.37 ± 0.22
20,RKLFDCGINACSLRYVTSYR,inactive
21,RKLFYG,-0.017 ± 0.39
22,RKLLSISL,0.22 ± 0.71
23,RKNTDVTENEYRWAIF,-0.522 ± 1.9
24,RKPVVGSFIFTTFCKSYVDV,2.9 ± 0.1
25,RKSDEGMKSPIGREIMGKSM,0.431 ± 0.9

row,Substance,amyloid nucleation score
1,RKSVFNTLLFVE,0.569 ± 0.33
2,RKYEGGRAKVWHGPCSVS,1.07 ± 0.76
3,RLASYHITVYRHTRSIVQ,0.612 ± 0.29
4,RLCIVLSRHMPYTDRMLVMP,0.259 ± 0.26
5,RLFHIGGRGVRYYRLDVAMH,-0.264 ± 1.2
6,RLFLKPAQWPNH,0.562 ± 0.67
7,RLGRNVNEHRVPLVLACVED,0.964 ± 0.93
8,RLIENFGPHYRSSPVFDVVV,1.33 ± 0.79
9,RLIYRCLKSGCVFPWLSRMS,-0.571 ± 1.1
10,RLLGLHWIT,1.5 ± 0.54
11,RLMNRFMPKSLLLLLPVFVR,inactive
12,RLNVQLAGSVGVVWFICNWA,5.98 ± 0.056
13,RLPWLRAQNANLVLLLVNRR,4.9 ± 0.074
14,RLRVVL,-0.537 ± 0.64
15,RLSHKNGVCTLAFIYVPDNA,inactive
16,RLSSPVSI,0.028 ± 0.68
17,RLSSRVIRKNFDYQTFCHED,0.414 ± 0.34
18,RLTFVYHRMERVKKDYCS,inactive
19,RLTLLRLVLV,0.945 ± 0.51
20,RLVSFKCFCFLFLIDFMQGV,0.495 ± 0.45
21,RLYRWPIWWWVSLSEMGISQ,-0.205 ± 0.35
22,RLYWWDVMTSNMFVMAFRSR,inactive
23,RMFCPHCDYLVSVFSWNPRC,1.54 ± 0.57
24,RMFWANLQVSVNFGDKRVKY,4.13 ± 0.091
25,RMIDMGTDTVFCLMSFARIN,-0.354 ± 0.22

row,Substance,amyloid nucleation score
1,RMIIYNKYRCNSYLTNMGFG,2 ± 0.34
2,RMPRCKVFSVFSLLHAQY,1.35 ± 0.9
3,RMVGYVRGMAFRRSVSRRIG,0.311 ± 0.68
4,RMVIMLMGTHDRPFWGITGS,0.925 ± 0.63
5,RNCNTT,0.034 ± 0.61
6,RNIATYYFRSN,0.612 ± 0.48
7,RNKMMWLIICQGPPYRAWSP,5.07 ± 0.07
8,RNNCEMCLGFLS,0.827 ± 0.37
9,RNNIFFF,7.399 ± 0.059
10,RNNQSHGMNYFFESCVVFYC,7.8 ± 0.047
11,RNSITEIPCPEMYSNNRLAF,1.13 ± 0.12
12,RNVRGSSKT,1.37 ± 0.48
13,RPFLIIKLLGVGLSVKPNCG,-0.158 ± 0.64
14,RPHECRSWAPVRALSGDAHL,2.91 ± 0.13
15,RPNCIVINGVKWYSAYWIGI,-0.915 ± 0.67
16,RPQYLCAAVHEVQRFGHNR,-0.79 ± 0.51
17,RPSPEGY,1.37 ± 0.84
18,RPTYMCSGTGDFLHFVFR,4.64 ± 0.053
19,RPVWHSFHMVFWNSASY,0.172 ± 0.45

# Reference: the supplement of paper PMC12042874
